We go through 32 variants from the RNAGym collection of RNA variant scans (doi:10.7554/elife.80360).

B1: HDV Ribozyme (parent)
chain: GGCCGGCAUGGUCCCAGCCUCCUCGCUGGCGCCGGCUGGGCAACAUUCCGAGGGGACCGUCCCCUCGGUAAUGGCGAAUGGGACCCA

The variants in the data set derive from B1. Kind of data set: self-cleavage, relative activity (ratio to wild type); higher = more cleavage; co-transcriptional.
GGACGGCAUGGUCCCAGCCUCCUCGCUGGCGCCGGUUGGGCAACAUUCCGAGGGGACCGUCCCCUCGGUAAUGGCGAAUGGGACCCA [C3A C36U]: the self-cleavage stood at 0.0915. The value for GGACGGCAUGGUCCCAGCCUCCUCGGUGGCGCCGGCUGGGCAACAUUCCGAGGGGACCGUCCCCUCGGUAAUGGCGAAUGGGACCCA [C3A C26G] was 0.415; that for GGACGGCAUGGUCCCAGCCUCCUCCCUGGCGCCGGCUGGGCAACAUUCCGAGGGGACCGUCCCCUCGGUAAUGGCGAAUGGGACCCA [C3A G25C] was 0.0198. On to GGACGGCAUGGUCCCAGCCUCCUCGCUGGCGCCGGCUGGGCAAUAUUCCGAGGGGACCGUCCCCUCGGUAAUGGCGAAUGGGACCCA [C3A C44U], for which the self-cleavage is 0.145. As to GGACGUCAUGGUCCCAGCCUCCUCGCUGGCGCCGGCUGGGCAACAUUCCGAGGGGACCGUCCCCUCGGUAAUGGCGAAUGGGACCCA [C3A G6U], the self-cleavage turned out to be 0.0492. Take GGACGGCAUGGUCCCAGCCUCCUCGCUGCCGCCGGCUGGGCAACAUUCCGAGGGGACCGUCCCCUCGGUAAUGGCGAAUGGGACCCA [C3A G29C]: the self-cleavage came out at 0. Under GGACGGCAUGGUCCCAGCCUCCUCGCUGUCGCCGGCUGGGCAACAUUCCGAGGGGACCGUCCCCUCGGUAAUGGCGAAUGGGACCCA [C3A G29U] stands 0.0316; under GGACGGCAUAGUCCCAGCCUCCUCGCUGGCGCCGGCUGGGCAACAUUCCGAGGGGACCGUCCCCUCGGUAAUGGCGAAUGGGACCCA [C3A G10A], 0.335. Take GGACGGCAUUGUCCCAGCCUCCUCGCUGGCGCCGGCUGGGCAACAUUCCGAGGGGACCGUCCCCUCGGUAAUGGCGAAUGGGACCCA [C3A G10U]: the self-cleavage was 0.23. Under GGACGGCAUCGUCCCAGCCUCCUCGCUGGCGCCGGCUGGGCAACAUUCCGAGGGGACCGUCCCCUCGGUAAUGGCGAAUGGGACCCA [C3A G10C] stands 0.504; under GGACGGCAUGGUCCCAGCCUCCUCGCUGGCGCCGGCUGGGCAACAUUCCGAGGGGACCGUUCCCUCGGUAAUGGCGAAUGGGACCCA [C3A C61U], 0.554; under GGACGGCAUGGUCCCAGCCUCCUCGCUGGCGUCGGCUGGGCAACAUUCCGAGGGGACCGUCCCCUCGGUAAUGGCGAAUGGGACCCA [C3A C32U], 0.119. Under GGACGGCAUGGUCCCAGCCUCCUCGCUGGCGCCGGCUGGGCAACAUUCCGAGGGGACCGUCCCCUCGGUAAUGGUGAAUGGGACCCA [C3A C75U] stands 0.128; under GGACGGCAUGGUCCCAGCCUCCUCGCUGGCGCCGGCUGGGCAACAUUCCGAGUGGACCGUCCCCUCGGUAAUGGCGAAUGGGACCCA [C3A G53U], 0.527.

Take GGACGGCAUGGUCCCAGCCUCCUCGCUGGCGCCGGCUGGGCAACAUUCCGAGCGGACCGUCCCCUCGGUAAUGGCGAAUGGGACCCA [C3A G53C]: the self-cleavage came to 0.635. The value for GGACGGCAUGGUCCCAGCCUCCUCGCUGGCGCCGGCUGGGCAACAUUCCGAGGGGACGGUCCCCUCGGUAAUGGCGAAUGGGACCCA [C3A C58G] was 0.606; that for GGACGGCAUGGUCCCAGCCUCCUCGCUGGCGCCGGCUGGGCAACAUUCCGAGGGGACCGUCCCCUCGGUAAUGGCGAAUUGGACCCA [C3A G80U] was 0.0893; that for GGACGGCAUGGUCCCAGCCUCCUCGCUGGCGCCGGCUGGGCAACAUUCCGAGGGGACCGUCGCCUCGGUAAUGGCGAAUGGGACCCA [C3A C62G] was 0.0773.

In the case of GGACGGCAUGGUCCCAGCCUCCUCGCUGGCGCCGGCUGGGCAACAUUCCGAGGGGACCGUCUCCUCGGUAAUGGCGAAUGGGACCCA [C3A C62U], the self-cleavage was determined as 0.57.

Turning to GGACGGCAUGGUCCCAGCCUCCUCGCUGGCGCCCGCUGGGCAACAUUCCGAGGGGACCGUCCCCUCGGUAAUGGCGAAUGGGACCCA [C3A G34C], the self-cleavage was determined as 0.0903. For GGACGGCAUGGUCCCAGCCUCCUCGCUGGCGCCUGCUGGGCAACAUUCCGAGGGGACCGUCCCCUCGGUAAUGGCGAAUGGGACCCA [C3A G34U], the self-cleavage stood at 0.109. Under GGACGGCAUGGUCCCAGCCUCCUCGCUGGCGCCGGCUGGGCAACAUUCCGAGGGGACCGUCCCCUCCGUAAUGGCGAAUGGGACCCA [C3A G67C] stands 0.61. The value for GGACGGCAUGGUCCCAGCCUCCUCGCUGGCGCCGGCUGGGCAACAUUCCGAGGGGACCGUCCCCUCUGUAAUGGCGAAUGGGACCCA [C3A G67U] was 0.71; that for GGACGGCAUGGUCCCAGCCUCCUCGCUGGCGCCGGCUGGACAACAUUCCGAGGGGACCGUCCCCUCGGUAAUGGCGAAUGGGACCCA [C3A G40A] was 0.412. For the variant GGACGGCAUGGUCCCAGCCUCCUCGCUGGCGCUGGCUGGGCAACAUUCCGAGGGGACCGUCCCCUCGGUAAUGGCGAAUGGGACCCA [C3A C33U], the self-cleavage was 0.166. Take GGACGGCAUGGUCCCAGCCUCCUCGCUGGCGCCGGCUCGGCAACAUUCCGAGGGGACCGUCCCCUCGGUAAUGGCGAAUGGGACCCA [C3A G38C]: the self-cleavage stood at 0. The value for GGACGGCAUGGUCCCAGCCUCCUCGCUGGCGCCGGCUGGGCAACAUUCCGAGGAGACCGUCCCCUCGGUAAUGGCGAAUGGGACCCA [C3A G54A] was 0.369; that for GGACGGCAUGGUCCCAGCCUCCUCGCUGGCGCCGGCUGGGCAACAUUUCGAGGGGACCGUCCCCUCGGUAAUGGCGAAUGGGACCCA [C3A C48U] was 0.635; that for GGACGGCAUGGUCCCAGCCUCCUCGCUGGCGCCGGCUGGGCAACAUUACGAGGGGACCGUCCCCUCGGUAAUGGCGAAUGGGACCCA [C3A C48A] was 0.839.

With GGACGGCAUGGUCCCAGCCUCCUCGCUGGCGCCGGCUGGGCAACAUUCCGAGGGGACCGUCCCCUCGGUAAUGGCGAAUGGGACCAA [C3A C86A], the self-cleavage was 0.535. Under GGACGGCAUGGUCCCAGCCUCCUCGCUGGCGCCGGCUGGGCAACAUUCCGAGGGGACCGUCCCCUCGGUAAUGGCGAAUGGGACCGA [C3A C86G] stands 0.745; under GGACGGCAUGGUCCCAGCCUCCUCGCUGGCGCCGGCUGGGCAACAUUCCGAGGGGACCGUCCCCUCGGUAAUGGCGAAUGGGACCUA [C3A C86U], 0.745.
